Source: publication PMC8547449, “Streptococcus pyogenes Forms Serotype- and Local Environment-Dependent Interspecies Protein Complexes” (mSystems, 2021)

Target: T1, C4b-binding protein (human, UniProt P04003 49-597; P20851 18-252)
T1 construct: In the AP-MS experiments it was followed by its alpha chain (C4BPA); also called C4BP; C4BPα; source: endogenous, pooled human plasma (AP-MS); bought: Complement Technology, purified human complement C4BP, catalog A109 (SPR, TX-MS, HDX-MS); copies: 7 +
T1 sequence (looked up) 1: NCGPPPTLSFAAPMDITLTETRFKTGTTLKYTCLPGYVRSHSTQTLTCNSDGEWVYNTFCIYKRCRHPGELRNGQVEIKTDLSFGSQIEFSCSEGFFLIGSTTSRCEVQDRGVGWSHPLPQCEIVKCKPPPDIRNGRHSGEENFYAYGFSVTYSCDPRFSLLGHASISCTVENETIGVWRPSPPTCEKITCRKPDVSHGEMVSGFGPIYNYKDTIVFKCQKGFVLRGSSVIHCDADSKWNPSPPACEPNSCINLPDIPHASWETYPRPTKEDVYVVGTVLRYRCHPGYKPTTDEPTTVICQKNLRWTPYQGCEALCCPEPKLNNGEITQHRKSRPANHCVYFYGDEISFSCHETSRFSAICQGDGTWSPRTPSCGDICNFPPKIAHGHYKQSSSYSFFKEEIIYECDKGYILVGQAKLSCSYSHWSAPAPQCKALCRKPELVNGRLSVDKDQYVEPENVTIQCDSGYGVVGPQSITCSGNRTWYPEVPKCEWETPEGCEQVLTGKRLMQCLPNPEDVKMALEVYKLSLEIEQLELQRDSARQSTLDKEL
T1 sequence (looked up) 2: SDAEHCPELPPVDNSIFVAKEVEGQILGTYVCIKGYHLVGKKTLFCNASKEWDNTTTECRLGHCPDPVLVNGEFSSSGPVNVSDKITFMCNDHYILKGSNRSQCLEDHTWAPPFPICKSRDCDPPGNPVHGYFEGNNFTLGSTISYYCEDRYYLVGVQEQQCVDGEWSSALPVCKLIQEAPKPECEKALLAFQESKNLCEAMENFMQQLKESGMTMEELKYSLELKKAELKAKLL
Assay: cross-linking; TX-MS: 10 μg C4BP or 10 μg IgA Fc with 10 μg untagged M28 in 100 μl PBS, 37°C, DSS-H12/D12 at 0 to 2,000 μM for 60 min; cross-linked peptides by DDA-MS
Conditions: both partners purified

B1: M28 protein, recombinant, affinity tag removed by TEV protease (natural protein)
chain: AESPKSTETSANGADKLADAYNTLLTEHEKLRDEYYTLIDAKEEEPRYKALRGENQDLREKEGKYQDKIKKLEEKEKNLEKKSEDVERHYLKKLDQEHKEQEERQKNLEELERQSQREIDKRYQEQLQKQQQLETEKQISEASRKSLSRDLEASRAAKKDLEAEHQKLKEEKQISDASRQGLSRDLEASRAAKKDLEAEHQKLKEEKQISDASRQGLSRDLEASREAKKKVEADLAEANSKLQALEKLNKELEEGKKLSEKEKAELQARLEAEAKALKEQLAKQAEELAKLKGNQTPNAKVAPQANRSRSAMTQQKR
notes: M protein of S. pyogenes serotype M28, mature, without the signal peptide and the LPXTG cell wall-anchoring motif, aa 42 to 358; Used for SPR, TX-MS and HDX-MS; also called untagged M28; TEV-cleaved M28; source: E. coli Tuner(DE3), purified (HisTrap, TEV digestion, HisTrap, Superdex 200)
- binding result: binds
